# B1: β-Glucuronidase (GusA), P05804 1-603 (enzyme)
# chain: MLRPVETPTREIKKLDGLWAFSLDRENCGIDQRWWESALQESRAIAVPGSFNDQFADADIRNYAGNVWYQREVFIPKGWAGQRIVLRFDAVTHYGKVWVNNQEVMEHQGGYTPFEADVTPYVIAGKSVRITVCVNNELNWQTIPPGMVITDENGKKKQSYFHDFFNYAGIHRSVMLYTTPNTWVDDITVVTHVAQDCNHASVDWQVVANGDVSVELRDADQQVVATGQGTSGTLQVVNPHLWQPGEGYLYELCVTAKSQTECDIYPLRVGIRSVAVKGEQFLINHKPFYFTGFGRHEDADLRGKGFDNVLMVHDHALMDWIGANSYRTSHYPYAEEMLDWADEHGIVVIDETAAVGFNLSLGIGFEAGNKPKELYSEEAVNGETQQAHLQAIKELIARDKNHPSVVMWSIANEPDTRPQGAREYFAPLAEATRKLDPTRPITCVNVMFCDAHTDTISDLFDVLCLNRYYGWYVQSGDLETAEKVLEKELLAWQEKLHQPIIITEYGVDTLAGLHSMYTDMWSEEYQCAWLDMYHRVFDRVSAVVGEQVWNFADFATSQGILRVGGNKKGIFTRDRKPKSAAFLLQKRWTGMNFGEKPQQGGKQ
# Columns and labels:
# [1] = target: β-Glucuronidase (GusA) (E. coli MG1655), P05804; assay: SEC; after 65°C and pH 5 for 20 min (high temperature and acidic pH); data not shown; conditions: remark: other sources report otherwise
# [2] = target: β-Glucuronidase (GusA) (E. coli MG1655), P05804; assay: SEC; gel filtration of the freshly purified enzymes against reference proteins (thyroglobulin, aldolase, albumin, ovalbumin, chymotrypsinogen A); results name a Superose 12 10/300 column, methods name a ZORBAX GF-250 HPLC column, 130 mM NaCl/20 mM Na2HPO4 pH 7.0, 23°C; conditions: remark: other sources report otherwise
binder,measurement,setting,value
B1,stoichiometry N,[1],4
same,stoichiometry N,[2],4

# From article PMC5242468
